In IntAct's records for PubMed 9537418:

B1: Merlin (Homo sapiens), P35240-3 (parent)
chain: MAGAIASRMSFSSLKRKQPKTFTVRIVTMDAEMEFNCEMKWKGKDLFDLVCRTLGLRETWFFGLQYTIKDTVAWLKMDKKVLDHDVSKEEPVTFHFLAKFYPENAEEELVQEITQHLFFLQVKKQILDEKIYCPPEASVLLASYAVQAKYGDYDPSVHKRGFLAQEELLPKRVINLYQMTPEMWEERITAWYAEHRGRARDEAEMEYLKIAQDLEMYGVNYFAIRNKKGTELLLGVDALGLHIYDPENRLTPKISFPWNEIRNISYSDKEFTIKPLDKKIDVFKFNSSKLRVNKLILQLCIGNHDLFMRRRKADSLEVQQMKAQAREEKARKQMERQRLAREKQMREEAERTRDELERRLLQMKEEATMANEALMRSEETADLLAEKAQITEEEAKLLAQKAAEAEQEMQRIKATAIRTEEEKRLMEQKVLEAEVLALKMAEESERRAKEADQLKQDLQEAREAERRAKQKLLEIATKPTYPPMNPIPAPLPPDIPSFNLIGDSLSFDFKDTDMKRLSMEIEKEKVEYMEKSKHLQEQLNELKTEIEALKLKERETALDILHNENSDRGGSSKHNTIKKPQAQGRRPICI

Variants of: B1
Conditions: with sptb2_human SPTBN1, Q01082
Chain of sptb2_human SPTBN1, Q01082 (Q01082 whole entry): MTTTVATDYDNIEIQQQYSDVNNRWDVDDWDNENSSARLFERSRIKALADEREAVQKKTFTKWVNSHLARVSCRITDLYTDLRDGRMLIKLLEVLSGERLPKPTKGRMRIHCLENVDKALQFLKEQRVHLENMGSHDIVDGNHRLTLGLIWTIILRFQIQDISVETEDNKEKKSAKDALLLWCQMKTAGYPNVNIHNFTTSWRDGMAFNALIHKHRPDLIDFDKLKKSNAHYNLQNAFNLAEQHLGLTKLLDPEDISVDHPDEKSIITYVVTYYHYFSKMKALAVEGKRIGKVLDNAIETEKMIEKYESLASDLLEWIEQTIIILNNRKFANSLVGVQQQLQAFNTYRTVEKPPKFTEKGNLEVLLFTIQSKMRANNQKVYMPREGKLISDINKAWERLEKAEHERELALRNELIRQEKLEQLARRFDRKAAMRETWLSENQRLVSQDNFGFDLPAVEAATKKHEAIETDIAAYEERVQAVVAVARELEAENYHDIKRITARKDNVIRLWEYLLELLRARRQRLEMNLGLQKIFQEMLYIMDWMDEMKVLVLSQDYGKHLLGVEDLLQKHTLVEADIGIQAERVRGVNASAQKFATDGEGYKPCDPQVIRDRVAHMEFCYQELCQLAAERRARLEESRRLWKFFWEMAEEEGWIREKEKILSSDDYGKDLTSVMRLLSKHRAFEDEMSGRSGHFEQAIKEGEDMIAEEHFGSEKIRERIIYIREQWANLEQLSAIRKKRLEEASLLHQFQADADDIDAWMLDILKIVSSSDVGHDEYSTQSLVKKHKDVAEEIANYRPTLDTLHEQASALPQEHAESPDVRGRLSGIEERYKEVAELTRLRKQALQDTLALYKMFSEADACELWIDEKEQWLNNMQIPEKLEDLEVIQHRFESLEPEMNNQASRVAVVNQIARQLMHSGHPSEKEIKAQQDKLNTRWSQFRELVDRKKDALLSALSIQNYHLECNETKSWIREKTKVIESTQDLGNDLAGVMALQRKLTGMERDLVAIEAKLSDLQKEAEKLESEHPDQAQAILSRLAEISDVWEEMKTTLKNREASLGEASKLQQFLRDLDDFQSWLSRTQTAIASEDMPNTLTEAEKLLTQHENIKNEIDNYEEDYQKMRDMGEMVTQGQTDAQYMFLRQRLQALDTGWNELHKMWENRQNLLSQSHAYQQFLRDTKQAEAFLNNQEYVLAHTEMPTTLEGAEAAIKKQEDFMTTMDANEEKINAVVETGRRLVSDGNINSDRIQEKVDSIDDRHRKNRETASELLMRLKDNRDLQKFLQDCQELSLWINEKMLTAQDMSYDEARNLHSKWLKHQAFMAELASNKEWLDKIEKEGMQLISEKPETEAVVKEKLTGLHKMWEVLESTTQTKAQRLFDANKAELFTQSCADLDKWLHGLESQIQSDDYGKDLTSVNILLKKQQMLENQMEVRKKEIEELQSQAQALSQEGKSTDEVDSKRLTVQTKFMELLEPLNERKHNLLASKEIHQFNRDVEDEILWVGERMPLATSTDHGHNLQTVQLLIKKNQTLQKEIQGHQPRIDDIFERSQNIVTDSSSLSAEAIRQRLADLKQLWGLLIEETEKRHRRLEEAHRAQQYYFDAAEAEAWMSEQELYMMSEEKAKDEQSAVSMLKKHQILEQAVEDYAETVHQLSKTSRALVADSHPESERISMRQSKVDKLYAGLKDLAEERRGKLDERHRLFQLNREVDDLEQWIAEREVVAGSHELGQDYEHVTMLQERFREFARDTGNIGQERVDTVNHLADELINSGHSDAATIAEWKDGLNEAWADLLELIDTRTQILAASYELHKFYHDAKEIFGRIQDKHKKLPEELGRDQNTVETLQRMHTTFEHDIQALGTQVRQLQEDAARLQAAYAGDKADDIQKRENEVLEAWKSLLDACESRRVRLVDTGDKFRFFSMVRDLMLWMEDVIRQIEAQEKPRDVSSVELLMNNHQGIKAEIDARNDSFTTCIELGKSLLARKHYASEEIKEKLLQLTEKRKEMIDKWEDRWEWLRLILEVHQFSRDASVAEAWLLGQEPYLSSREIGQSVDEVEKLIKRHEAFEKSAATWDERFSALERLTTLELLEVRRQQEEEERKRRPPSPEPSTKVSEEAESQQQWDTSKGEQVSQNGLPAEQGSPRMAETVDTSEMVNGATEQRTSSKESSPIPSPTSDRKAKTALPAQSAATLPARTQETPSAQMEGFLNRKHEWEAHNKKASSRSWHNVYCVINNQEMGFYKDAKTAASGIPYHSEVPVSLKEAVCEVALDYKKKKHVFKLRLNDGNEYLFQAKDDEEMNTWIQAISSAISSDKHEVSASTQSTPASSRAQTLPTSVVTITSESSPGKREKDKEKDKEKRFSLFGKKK

| Variant | effect of a mutation on the interaction |
| --- | --- |
| MAGAIASRMSFSSLKRKQPKTFTVRIVTMDAEMEFNCEMKWKGKDLFDLVCRTLGLRETWFFGLQYTIKDTVAWLKMDKKVLDHDVSKEEPVTFHFLAKFYPENAEEELVQEITQHLFFLQVKKQILDEKIYCPPEASVLLASYAVQAKYGDYDPSVHKRGFLAQEELLPKRVINLYQMTPEMWEERITAWYAEHRGRARDEAEMEYLKIAQDLEMYGVNYFAIRNKKGTELLLGVDALGLHIYDPENRLTPKISFPWNEIRNISYSDKEFTIKPLDKKIDVFKFNSSKLRVNKLILQLCIGNHDLFMRRRKADSLEVQQMKAQAREEKARKQMERQRLAREKQMREEAERTRDELERRPLQMKEEATMANEALMRSEETADLLAEKAQITEEEAKLLAQKAAEAEQEMQRIKATAIRTEEEKRLMEQKVLEAEVLALKMAEESERRAKEADQLKQDLQEAREAERRAKQKLLEIATKPTYPPMNPIPAPLPPDIPSFNLIGDSLSFDFKDTDMKRLSMEIEKEKVEYMEKSKHLQEQLNELKTEIEALKLKERETALDILHNENSDRGGSSKHNTIKKPQAQGRRPICI [L360P] | decreasing interaction strength |
| MAGAIASRMSFSSLKRKQPKTFTVRIVTMDAEMEFNCEMKWKGKDLFDLVCRTLGLRETWFFGLQYTIKDTVAWLKMDKKVLDHDVSKEEPVTFHFLAKFYPENAEEELVQEITQHLFFLQVKKQILDEKIYCPPEASVLLASYAVQAKYGDYDPSVHKRGFLAQEELLPKRVINLYQMTPEMWEERITAWYAEHRGRARDEAEMEYLKIAQDLEMYGVNYFAIRNKKGTELLLGVDALGLHIYDPENRLTPKISFPWNEIRNISYSDKEFTIKPLDKKIDVFKFNSSKLRVNKLILQLCIGNHDLFMRRRKADSLEVQQMKAQAREEKARKQMERQRLAREKQMREEAERTRDELERRLLQMKEEATMANEALMRSEETADLLAEKAQITEEEAKLLAQKAAEAEQEMQRIKATAIRTEEEKRLMEQKVLEAEVLALKMAEESERRAKEADQLKQDLQEAREAERRAKQKLLEIATKPTYPPMNPIPAPLPPDIPSFNLIGDSLSFDFKDTDMKRLSMEIEKEKVEYMEKSKHPQEQLNELKTEIEALKLKERETALDILHNENSDRGGSSKHNTIKKPQAQGRRPICI [L535P] | decreasing interaction strength |
| MAGAIASRMSFSSLKRKQPKTFTVRIVTMDAEMEFNCEMKWKGKDLFDLVCRTLGLRETWFFGLQYTIKDTVAWLKMDKKVLDHDVSKEEPVTFHFLAKFYPENAEEELVQEITQHLFFLQVKKQILDEKIYCPPEASVLLASYAVQAKYGDYDPSVHKRGFLAQEELLPKRVINLYQMTPEMWEERITAWYAEHRGRARDEAEMEYLKIAQDLEMYGVNYFAIRNKKGTELLLGVDALGLHIYDPENRLTPKISFPWNEIRNISYSDKEFTIKPLDKKIDVFKFNSSKLRVNKLILQLCIGNHDLFMRRRKADSLEVQQMKAQAREEKARKQMERQRLAREKQMREEAERTRDELERRLLQMKEEATMANEALMRSEETADLLAEKAQITEEEAKLLAQKAAEAEQEMQRIKATAIRTEEEKRLMEQKVLEAEVLALKMAEESERRAKEADQLKQDLQEAREAERRAKQKLLEIATKPTYPPMNPIPAPLPPDIPSFNLIGDSLSFDFKDTDMKRLSMEIEKEKVEYMEKSKHLQEPLNELKTEIEALKLKERETALDILHNENSDRGGSSKHNTIKKPQAQGRRPICI [Q538P] | disrupting interaction strength |
